# ± gives the uncertainty stated by the source.
# B1: CD2-associated protein, residues 1 to 59; numbered along this chain, Q9Y5K6 (parent)
# chain: MVDYIVEYDYDAVHDDELTIRVGEIIRNVKKLQEEGWLEGELNGRRGMFPDNFVKEIKR
# Variants of: B1
# Experiment: abundance fitness (aPCA) (normalised: wild type 0, dead -1); higher = more abundant; growth selection in yeast, the domain comes from the species named
# Conditions: Homo sapiens
row,Variant,abundance fitness
1,MVDYIVEYDYDASHDDELTIRVGEIIRNVKKLQEEGWLEGELNGRRGMFPDNFVKEIKR,0.067 ± 0.1
2,MVDYIVEYDYDAEHDDELTIRVGEIIRNVKKLQEEGWLEGELNGRRGMFPDNFVKEIKR,-0.058 ± 0.18
3,MVDYIVEYDYDATHDDELTIRVGEIIRNVKKLQEEGWLEGELNGRRGMFPDNFVKEIKR,-0.275 ± 0.11
4,MVDYIVEYDYDAFHDDELTIRVGEIIRNVKKLQEEGWLEGELNGRRGMFPDNFVKEIKR,-0.354 ± 0.22
5,MVDYIVEYDYDAYHDDELTIRVGEIIRNVKKLQEEGWLEGELNGRRGMFPDNFVKEIKR,-0.328 ± 0.25
6,MVDYIVEYDYDAIHDDELTIRVGEIIRNVKKLQEEGWLEGELNGRRGMFPDNFVKEIKR,-0.431 ± 0.33
7,MVDYIVEYDYDANHDDELTIRVGEIIRNVKKLQEEGWLEGELNGRRGMFPDNFVKEIKR,-0.164 ± 0.17
8,MVDYIVEYDYDAPHDDELTIRVGEIIRNVKKLQEEGWLEGELNGRRGMFPDNFVKEIKR,-0.726 ± 0.19
9,MVDYIVEYDYDAQHDDELTIRVGEIIRNVKKLQEEGWLEGELNGRRGMFPDNFVKEIKR,-0.268 ± 0.23
10,MVDYIVEYDYDAGHDDELTIRVGEIIRNVKKLQEEGWLEGELNGRRGMFPDNFVKEIKR,-0.046 ± 0.079
11,MVDYIVEYDYDAHHDDELTIRVGEIIRNVKKLQEEGWLEGELNGRRGMFPDNFVKEIKR,-0.358 ± 0.47
12,MVDYIVEYDYDAWHDDELTIRVGEIIRNVKKLQEEGWLEGELNGRRGMFPDNFVKEIKR,-0.197 ± 0.13
13,MVDYIVEYDYDARHDDELTIRVGEIIRNVKKLQEEGWLEGELNGRRGMFPDNFVKEIKR,-0.149 ± 0.077
14,MVDYIVEYDYDAMHDDELTIRVGEIIRNVKKLQEEGWLEGELNGRRGMFPDNFVKEIKR,-0.058 ± 0.18
15,MVDYIVEYDYDALHDDELTIRVGEIIRNVKKLQEEGWLEGELNGRRGMFPDNFVKEIKR,-0.188 ± 0.095
16,MVDYIVEYDYDAKHDDELTIRVGEIIRNVKKLQEEGWLEGELNGRRGMFPDNFVKEIKR,-0.074 ± 0.14
17,MVDYIVEYDYNAVHDDELTIRVGEIIRNVKKLQEEGWLEGELNGRRGMFPDNFVKEIKR,-0.086 ± 0.17
18,MVDYIVEYDYVAVHDDELTIRVGEIIRNVKKLQEEGWLEGELNGRRGMFPDNFVKEIKR,-0.002 ± 0.16
19,MVDYIVEYDYYAVHDDELTIRVGEIIRNVKKLQEEGWLEGELNGRRGMFPDNFVKEIKR,-0.242 ± 0.14
20,MVDYIVEYDYDWVHDDELTIRVGEIIRNVKKLQEEGWLEGELNGRRGMFPDNFVKEIKR,-0.942 ± 0.22
21,MVDYIVEYDYDIVHDDELTIRVGEIIRNVKKLQEEGWLEGELNGRRGMFPDNFVKEIKR,-0.782 ± 0.21
22,MVDYIVEYDYDVVHDDELTIRVGEIIRNVKKLQEEGWLEGELNGRRGMFPDNFVKEIKR,-1.02 ± 0.24
23,MVDYIVEYDYDTVHDDELTIRVGEIIRNVKKLQEEGWLEGELNGRRGMFPDNFVKEIKR,-0.716 ± 0.25

row,Variant,abundance fitness
1,MVDYIVEYDYDMVHDDELTIRVGEIIRNVKKLQEEGWLEGELNGRRGMFPDNFVKEIKR,-0.842 ± 0.22
2,MVDYIVEYDYDYVHDDELTIRVGEIIRNVKKLQEEGWLEGELNGRRGMFPDNFVKEIKR,-1.05 ± 0.4
3,MVDYIVEYDYDNVHDDELTIRVGEIIRNVKKLQEEGWLEGELNGRRGMFPDNFVKEIKR,-0.618 ± 0.22
4,MVDYIVEYDYDSVHDDELTIRVGEIIRNVKKLQEEGWLEGELNGRRGMFPDNFVKEIKR,-0.157 ± 0.088
5,MVDYIVEYDYDPVHDDELTIRVGEIIRNVKKLQEEGWLEGELNGRRGMFPDNFVKEIKR,-0.591 ± 0.1
6,MVDYIVEYDYDCVHDDELTIRVGEIIRNVKKLQEEGWLEGELNGRRGMFPDNFVKEIKR,-0.35 ± 0.14
7,MVDYIVEYDYDLVHDDELTIRVGEIIRNVKKLQEEGWLEGELNGRRGMFPDNFVKEIKR,-1.12 ± 0.16
8,MVDYIVEYDYDHVHDDELTIRVGEIIRNVKKLQEEGWLEGELNGRRGMFPDNFVKEIKR,-0.924 ± 0.43
9,MVDYIVEYDYDEVHDDELTIRVGEIIRNVKKLQEEGWLEGELNGRRGMFPDNFVKEIKR,-0.435 ± 0.18
10,MVDYIVEYDYDDVHDDELTIRVGEIIRNVKKLQEEGWLEGELNGRRGMFPDNFVKEIKR,-0.846 ± 0.44
11,MVDYIVEYDYDKVHDDELTIRVGEIIRNVKKLQEEGWLEGELNGRRGMFPDNFVKEIKR,-0.205 ± 0.14
12,MVDYIVEYDYDQVHDDELTIRVGEIIRNVKKLQEEGWLEGELNGRRGMFPDNFVKEIKR,-0.349 ± 0.12
13,MVDYIVEYDYDRVHDDELTIRVGEIIRNVKKLQEEGWLEGELNGRRGMFPDNFVKEIKR,-0.416 ± 0.07
14,MVDYIVEYDYDAVQDDELTIRVGEIIRNVKKLQEEGWLEGELNGRRGMFPDNFVKEIKR,-0.086 ± 0.15
15,MVDYIVEYDYDAVTDDELTIRVGEIIRNVKKLQEEGWLEGELNGRRGMFPDNFVKEIKR,-0.001 ± 0.12
16,MVDYIVEYDYDAVGDDELTIRVGEIIRNVKKLQEEGWLEGELNGRRGMFPDNFVKEIKR,-0.031 ± 0.087
17,MVDYIVEYDYDAVKDDELTIRVGEIIRNVKKLQEEGWLEGELNGRRGMFPDNFVKEIKR,0.088 ± 0.15
18,MVDYIVEYDYDAVADDELTIRVGEIIRNVKKLQEEGWLEGELNGRRGMFPDNFVKEIKR,-0.113 ± 0.14
19,MVDYIVEYDYDAVRDDELTIRVGEIIRNVKKLQEEGWLEGELNGRRGMFPDNFVKEIKR,0.021 ± 0.091
20,MVDYIVEYDYDAVCDDELTIRVGEIIRNVKKLQEEGWLEGELNGRRGMFPDNFVKEIKR,0.152 ± 0.17
21,MVDYIVEYDYDAVLDDELTIRVGEIIRNVKKLQEEGWLEGELNGRRGMFPDNFVKEIKR,-0.217 ± 0.093
22,MVDYIVEYDYDAVNDDELTIRVGEIIRNVKKLQEEGWLEGELNGRRGMFPDNFVKEIKR,0.09 ± 0.15
23,MVDYIVEYDYDAVVDDELTIRVGEIIRNVKKLQEEGWLEGELNGRRGMFPDNFVKEIKR,-0.186 ± 0.092

row,Variant,abundance fitness
1,MVDYIVEYDYDAVPDDELTIRVGEIIRNVKKLQEEGWLEGELNGRRGMFPDNFVKEIKR,-0.946 ± 0.26
2,MVDYIVEYDYDAVWDDELTIRVGEIIRNVKKLQEEGWLEGELNGRRGMFPDNFVKEIKR,-0.455 ± 0.17
3,MVDYIVEYDYDAVDDDELTIRVGEIIRNVKKLQEEGWLEGELNGRRGMFPDNFVKEIKR,-0.113 ± 0.18
4,MVDYIVEYDYDAVEDDELTIRVGEIIRNVKKLQEEGWLEGELNGRRGMFPDNFVKEIKR,-0.016 ± 0.13
5,MVDYIVEYDYDAVHADELTIRVGEIIRNVKKLQEEGWLEGELNGRRGMFPDNFVKEIKR,-0.011 ± 0.092
6,MVDYIVEYDYDAVHPDELTIRVGEIIRNVKKLQEEGWLEGELNGRRGMFPDNFVKEIKR,-0.13 ± 0.2
7,MVDYIVEYDYDAVHFDELTIRVGEIIRNVKKLQEEGWLEGELNGRRGMFPDNFVKEIKR,-0.325 ± 0.09
8,MVDYIVEYDYDAVHYDELTIRVGEIIRNVKKLQEEGWLEGELNGRRGMFPDNFVKEIKR,-0.204 ± 0.11
9,MVDYIVEYDYDAVHGDELTIRVGEIIRNVKKLQEEGWLEGELNGRRGMFPDNFVKEIKR,-0.051 ± 0.12
10,MVDYIVEYDYDAVHSDELTIRVGEIIRNVKKLQEEGWLEGELNGRRGMFPDNFVKEIKR,-0.098 ± 0.06
11,MVDYIVEYDYDAVHEDELTIRVGEIIRNVKKLQEEGWLEGELNGRRGMFPDNFVKEIKR,0.002 ± 0.094
12,MVDYIVEYDYDAVHQDELTIRVGEIIRNVKKLQEEGWLEGELNGRRGMFPDNFVKEIKR,-0.008 ± 0.11
13,MVDYIVEYDYDAVHMDELTIRVGEIIRNVKKLQEEGWLEGELNGRRGMFPDNFVKEIKR,-0.305 ± 0.096
14,MVDYIVEYDYDAVHRDELTIRVGEIIRNVKKLQEEGWLEGELNGRRGMFPDNFVKEIKR,-0.146 ± 0.076
15,MVDYIVEYDYDAVHHDELTIRVGEIIRNVKKLQEEGWLEGELNGRRGMFPDNFVKEIKR,-0.078 ± 0.14
16,MVDYIVEYDYDAVHLDELTIRVGEIIRNVKKLQEEGWLEGELNGRRGMFPDNFVKEIKR,-0.142 ± 0.054
17,MVDYIVEYDYDAVHIDELTIRVGEIIRNVKKLQEEGWLEGELNGRRGMFPDNFVKEIKR,-0.415 ± 0.24
18,MVDYIVEYDYDAVHWDELTIRVGEIIRNVKKLQEEGWLEGELNGRRGMFPDNFVKEIKR,-0.453 ± 0.13
19,MVDYIVEYDYDAVHVDELTIRVGEIIRNVKKLQEEGWLEGELNGRRGMFPDNFVKEIKR,-0.038 ± 0.069
20,MVDYIVEYDYDAVHCDELTIRVGEIIRNVKKLQEEGWLEGELNGRRGMFPDNFVKEIKR,-0.284 ± 0.17
21,MVDYIVEYDYDAVHKDELTIRVGEIIRNVKKLQEEGWLEGELNGRRGMFPDNFVKEIKR,-0.078 ± 0.14
22,MVDYIVEYDSDAVHDDELTIRVGEIIRNVKKLQEEGWLEGELNGRRGMFPDNFVKEIKR,-0.999 ± 0.17
23,MVDYIVEYDHDAVHDDELTIRVGEIIRNVKKLQEEGWLEGELNGRRGMFPDNFVKEIKR,-0.257 ± 0.28

row,Variant,abundance fitness
1,MVDYIVEYDTDAVHDDELTIRVGEIIRNVKKLQEEGWLEGELNGRRGMFPDNFVKEIKR,-0.878 ± 0.18
2,MVDYIVEYDQDAVHDDELTIRVGEIIRNVKKLQEEGWLEGELNGRRGMFPDNFVKEIKR,-1.18 ± 0.31
3,MVDYIVEYDNDAVHDDELTIRVGEIIRNVKKLQEEGWLEGELNGRRGMFPDNFVKEIKR,-0.599 ± 0.33
4,MVDYIVEYDLDAVHDDELTIRVGEIIRNVKKLQEEGWLEGELNGRRGMFPDNFVKEIKR,-0.782 ± 0.1
5,MVDYIVEYDGDAVHDDELTIRVGEIIRNVKKLQEEGWLEGELNGRRGMFPDNFVKEIKR,-0.671 ± 0.21
6,MVDYIVEYDIDAVHDDELTIRVGEIIRNVKKLQEEGWLEGELNGRRGMFPDNFVKEIKR,-0.812 ± 0.37
7,MVDYIVEYDEDAVHDDELTIRVGEIIRNVKKLQEEGWLEGELNGRRGMFPDNFVKEIKR,-0.787 ± 0.19
8,MVDYIVEYDPDAVHDDELTIRVGEIIRNVKKLQEEGWLEGELNGRRGMFPDNFVKEIKR,-0.904 ± 0.26
9,MVDYIVEYDWDAVHDDELTIRVGEIIRNVKKLQEEGWLEGELNGRRGMFPDNFVKEIKR,-0.037 ± 0.062
10,MVDYIVEYDRDAVHDDELTIRVGEIIRNVKKLQEEGWLEGELNGRRGMFPDNFVKEIKR,-0.014 ± 0.062
11,MVDYIVEYDKDAVHDDELTIRVGEIIRNVKKLQEEGWLEGELNGRRGMFPDNFVKEIKR,-0.322 ± 0.077
12,MVDYIVEYDMDAVHDDELTIRVGEIIRNVKKLQEEGWLEGELNGRRGMFPDNFVKEIKR,-0.667 ± 0.11
13,MVDYIVEYDVDAVHDDELTIRVGEIIRNVKKLQEEGWLEGELNGRRGMFPDNFVKEIKR,-1.06 ± 0.39
14,MVDYIVEYDYDAVHDKELTIRVGEIIRNVKKLQEEGWLEGELNGRRGMFPDNFVKEIKR,-0.095 ± 0.13
15,MVDYIVEYDYDAVHDAELTIRVGEIIRNVKKLQEEGWLEGELNGRRGMFPDNFVKEIKR,-0.045 ± 0.059
16,MVDYIVEYDYDAVHDEELTIRVGEIIRNVKKLQEEGWLEGELNGRRGMFPDNFVKEIKR,-0.115 ± 0.086
17,MVDYIVEYDYDAVHDGELTIRVGEIIRNVKKLQEEGWLEGELNGRRGMFPDNFVKEIKR,-0.069 ± 0.068
18,MVDYIVEYDYDAVHDCELTIRVGEIIRNVKKLQEEGWLEGELNGRRGMFPDNFVKEIKR,0.229 ± 0.18
19,MVDYIVEYDYDAVHDLELTIRVGEIIRNVKKLQEEGWLEGELNGRRGMFPDNFVKEIKR,-0.13 ± 0.076
20,MVDYIVEYDYDAVHDFELTIRVGEIIRNVKKLQEEGWLEGELNGRRGMFPDNFVKEIKR,-0.297 ± 0.15
21,MVDYIVEYDYDAVHDMELTIRVGEIIRNVKKLQEEGWLEGELNGRRGMFPDNFVKEIKR,-0.073 ± 0.13

# Reference: the Human Domainome abundance scans (Beltran et al. 2025)
